{
  "source": "patent US20080132445A1",
  "about": "“Method for Inducing Mammary Epithelial Cell Differentiation” (Garvan Institute of Medical Reserach, priority 2002, published 2008)",
  "key": {"[1]": {"test_system": "GalR1", "settings": "stated as known; cited from earlier work"}, "[2]": {"test_system": "galanin expression (galanin promoter estrogen response element)", "settings": "Howard et al 1997; Kaplan et al 1988; cited from earlier work"}, "[3]": {"test_system": "ERK1/2", "experiment": "Western analysis of cultured mammary glands: MAP kinase pathway", "format": "cell-based, mice", "settings": "western blot", "protocol": "(§1) Four week old BALB/c mice were implanted with estrogen, progesterone and cholesterol pellets (Ginsburg and Vonderhaar, 2000). Following nine days of treatment, the whole fourth glands were removed and stretched onto siliconized lens paper and placed into petri dishes containing 2 mL of Waymouths 152/1 medium supplemented with penicillin (100 U/ml), streptomycin (100 μg/ml), gentamycin sulfate (50 μg/ml), 20 mM HEPES, insulin (5 μg/ml), hydrocortisone (100 ng/ml) and aldosterone (100 ng/ml) (basal medium, IAH) to monitor ductal side branching, with and without 100 nM rat galanin (Auspep). To assess lobuloalveolar development ovine PRL (Sigma, 1 μg/ml) was added to the basal medium with or without galanin. Glands were maintained in a tri-gas incubator at 50% O2 and 5% CO2 in air. Medium was changed after 24 hr, then every second day for 6 days before morphology and histology were assessed.\n(§2) Following RNA extraction from mammary glands using TRIZOL Reagent (Gibco BRL), protein was extracted following the manufacturer's instructions. […] Specific binding was detected using Horseradish peroxidase conjugated secondary antibodies (Amersham Biosciences) with Chemiluminescence Reagent (PerkinElmer) and Biomax Light Film (Eastman Kodak Company)."}, "[4]": {"test_system": "Gal−/− mice mammary gland", "experiment": "Prl treatment of Gal−/− mice throughout pregnancy (mini-osmotic pump)", "format": "in vivo, mouse", "protocol": "(§3) Mammary whole mounts were made by spreading the gland on a glass slide and fixing in 10% formalin solution. Glands were defatted in acetone before carmine alum (0.2% carmine, 0.5% aluminium sulfate) staining overnight. The whole mount was dehydrated using a graded ethanol series followed by xylene treatment for 60 min and storage and photography in methyl salicylate. Morphometric analysis was performed by counting the number of side branches, alveolar buds or lobuloalveoli per mammary gland (n=5) for mammary gland cultures or from 4 representative fields of view from whole 4th inguinal glands.\nOn the morning of the observation of a vaginal plug, 6-8 week old mice were implanted with a 0.25 μl per hour, 28 day mini-osmotic pump (Alzet) containing unmodified Prl prepared as described (23). Either 0.6 or 1.2 μg were delivered per 24 hr. On the first day post-partum maternal behaviour of mothers was observed, pups were examined for the presence of milk and glands were taken for histological analysis.\n(§4) Quantitative PCR was performed using LightCycler technology (Roche). Primers were designed on the basis of mismatch to other genes for WDMN1, β-Actin, WAP, β-casein, […], Elf5, Glycam1, IGF1, GHR, SPOT 14 and PRLR. PCR reactions were performed in 10 μL volume with 1 μL of cDNA, 5 pmoles of each primer and FastStart DNA Master SYBR Green I enzyme mix (Roche) as per manufacturers instructions. Relative quantitation of the product was performed by comparing the crossing points of different samples normalised to an internal control (β-Actin). Each cycle in the linear phase of the reaction corresponds to a two fold difference in transcript levels between samples. Each reaction was performed in triplicate using pooled RNA from the 4-6 mammary glands or the treatment groups utilised for transcript profiling."}, "[5]": {"test_system": "mammary gland gene expression", "experiment": "Transcript profiling of cultured mammary glands (Affymetrix MGU74Av2 GeneChips)", "format": "cell-based, mice", "protocol": "as §1\nTotal RNA was extracted using TRIZOL Reagent (Gibco BRL), purified using RNeasy Mini Kit (QIAGEN), cDNA synthesis performed using Superscript II (Invitrogen Life Technologies), synthesis of Biotin-labeled cRNA performed using BioArray HighYield RNA Transcript labeling Kit (Enzo Diagnostics) and hybridised to Affymetrix MGU74v2 GeneChips overnight as per manufacturers instructions. Arrays were performed in duplicate using 4-6 glands per treatment group from two separate replicate experiments. Analysis was performed using the Affymetrix GeneChip v5 software (MAS 5), with treatment groups compared back to IAH treatment as the baseline comparison. Principal Components Analysis was performed using JMP (SAS Institute). Venn diagrams where formed by selecting genes called increasing or decreasing by MAS 5 with a fold change greater then 1.7 compared to IAH. These groups were further restricted by excluding genes with a magnitude fold change >1.2 induced by the other treatments.\nas §4"}, "[6]": {"test_system": "milk proteins (WAP, α-casein, β-casein)", "experiment": "Western analysis of cultured mammary glands: milk protein expression", "format": "cell-based, mice", "settings": "western blot", "protocol": "as §1, §2"}, "[7]": {"test_system": "STAT5", "experiment": "Western analysis of cultured mammary glands: JAK/STAT pathway", "format": "cell-based, mice", "settings": "western blot", "protocol": "as §1, §2"}, "[8]": {"test_system": "Akt", "experiment": "Western analysis of cultured mammary glands: PI3 kinase pathway", "format": "cell-based, mice", "settings": "western blot", "protocol": "as §1\nFollowing RNA extraction from mammary glands using TRIZOL Reagent (Gibco BRL), protein was extracted following the manufacturer's instructions. Protein was separated using SDS-PAGE (Bio-Rad Laboratories), transferred to PVDF (Millipore) and blocked overnight with 5% skim milk powder, 2% fetal bovine serum, 50 mM sodium phosphate, 50 mM NaCl and 0.1% Tween 20. Membranes were incubated with one of the following primary antibodies: α-milk protein (Accurate Chemical & Scientific Corporation), α-STAT5a (Upstate Biotech), α-phospho-STAT5, α-phospho-Erk1/2, α-Erk2, α-phospho-Akt (S473), α-phospho-Akt (T308), α-Akt (Cell Signaling Technology) or α-β-Actin (Sigma). 20 μg of protein was loaded per lane except for α-milk protein were 400 ng of protein was loaded. Specific binding was detected using Horseradish peroxidase conjugated secondary antibodies (Amersham Biosciences) with Chemiluminescence Reagent (PerkinElmer) and Biomax Light Film (Eastman Kodak Company)."}, "[9]": {"test_system": "mammary glands (lobuloalveolar development)", "experiment": "Mammary gland whole organ culture, morphology and histology", "format": "cell-based, BALB/c mice", "protocol": "as §3\nas §1, with “To assess lobuloalveolar development ovine PRL (Sigma, 1 μg/ml) was added to the basal medium with or without galanin. Glands were maintained in a tri-gas incubator at 50% O2 and 5% CO2 in air.” left out"}},
  "data": [
    {"molecule": "GALP (1-60): 60 amino acid neuropeptide, galanin-like peptide, binds GalR1 and GalR2 (APAHRGRGGWTLNSAGYLLGPVLHLPQMGDQDGKRETALEILDLWKAIDGLPYSHPPQPS; Galanin-like peptide; UniProt Q9UBC7 25-84, looked up)", "values": [
      {"measurement": "affinity for GalR1", "setting": "[1]", "value": "poor affinity"}
    ]},
    {"molecule": "estrogen", "values": [
      {"measurement": "increase of galanin expression", "setting": "[2]", "value": "about 4000 fold"}
    ]},
    {"molecule": "PRL: prolactin; ovine PRL (Sigma, 1 μg/ml) in culture, unmodified Prl by mini-osmotic pump in mice (protein, UniProt P01240 31-229, looked up) Prolactin: TPVCPNGPGNCQVSLRDLFDRAVMVSHYIHNLSSEMFNEFDKRYAQGKGFITMALNSCHTSSLPTPEDKEQAQQTHHEVLMSLILGLLRSWNDPLYHLVTEVRGMKGVPDAILSRAIEIEEENKRLLEGMEMIFGQVIPGAKETEPYPVWSGLPSLQTKDEDARHSAFYNLLHCLRRDSSKIDTYLKLLNCRIIYNNNC", "values": [
      {"measurement": "phosphorylated ERK / sustained activation of the MAP kinase pathway", "setting": "[3]", "value": "dramatically increased"},
      {"measurement": "total ERK1/2", "setting": "[3]", "value": "decreased"},
      {"measurement": "lactation and pup survival", "setting": "[4]; 0.6 or 1.2 μg PRL per 24 hours by mini osmotic pump throughout pregnancy", "value": "restored lactation and allowed pup survival"},
      {"measurement": "lobuloalveolar density (mammary gland whole mounts)", "setting": "[4]; PRL throughout pregnancy, 1st day post-partum", "value": "partial rescue"},
      {"measurement": "Keratin18 levels", "setting": "[4]; PRL throughout pregnancy, quantitative RT-PCR", "value": "unchanged"},
      {"measurement": "milk protein gene expression (WDMN1, β-casein, WAP), lobuloalveolar differentiation", "setting": "[4]; PRL throughout pregnancy, quantitative RT-PCR, 1st day post-partum", "value": "did not even partially rescue"},
      {"measurement": "PDGFRA expression", "setting": "[5]; cultured mammary glands", "value": "prevents galanin from reducing"},
      {"measurement": "regulation of galanin or its receptors", "setting": "[5]; cultured mammary glands", "value": "did not regulate"},
      {"measurement": "genes regulated that are not regulated by the other hormone (unique transcriptional influence)", "setting": "[5]; fold change 1.7 versus IAH", "value": 160, "unit": "genes"},
      {"measurement": "genes that changed expression in response to all three treatments", "setting": "[5]; fold change 1.7 versus IAH, 40% of all regulated genes", "value": 136, "unit": "genes"},
      {"measurement": "genes regulated regardless of the presence of the other hormone", "setting": "[5]; fold change greater than 1.7 versus IAH", "value": 154, "unit": "genes"},
      {"measurement": "genes regulated by the other hormone whose regulation is antagonised", "setting": "[5]; prolactin against galanin's unique genes, galanin against 160 prolactin regulated genes", "value": "30/31"},
      {"measurement": "milk protein synthesis (WAP, α and β casein)", "setting": "[6]", "value": "synthesised"},
      {"measurement": "phosphorylated STAT5 / activation of the JAK/STAT pathway", "setting": "[7]", "value": "dramatic increase"},
      {"measurement": "total STAT5a", "setting": "[7]", "value": "increase"},
      {"measurement": "mobility of Akt", "setting": "[8]", "value": "decreased mobility"},
      {"measurement": "phosphorylation of T308 and S473 residues of Akt", "setting": "[8]", "value": "did not increase"},
      {"measurement": "total Akt", "setting": "[8]", "value": "no increase"},
      {"measurement": "number of lobuloalveoli per gland", "setting": "[9]; IAH medium, PRL 1 μg/ml with or without 100 nM galanin", "value": "8.6±2.1"},
      {"measurement": "ductal or lobuloalveolar development by quantitative morphology and histology", "setting": "[9]; added to IAH medium, 100 nM galanin or ovine PRL 1 μg/ml, 6 days culture", "value": "lobuloalveolar development was observed"}
    ]}
  ]
}
